Data published in publication PMC6098113, “A 2′FY-RNA Motif Defines an Aptamer for Ebolavirus Secreted Protein”.
Read-outs that look alike come from different tables or passages of the source.

How the values were obtained:
alpha2-macroglobulin = molecular target: T1, alpha2-macroglobulin (UniProt P01023 24-1474); experiment: filter binding; 205 nM to 5 uM alpha2-macroglobulin; Buffer A: 137 mM NaCl, 2.7 mM KCl, 10 mM Na2HPO4, 2 mM KH2PO4, 5 mM MgCl2, pH 7.4, RT (23-24 C), 30 min; conditions: protein: commercial; label: 32P; hairpin
T1 sequence: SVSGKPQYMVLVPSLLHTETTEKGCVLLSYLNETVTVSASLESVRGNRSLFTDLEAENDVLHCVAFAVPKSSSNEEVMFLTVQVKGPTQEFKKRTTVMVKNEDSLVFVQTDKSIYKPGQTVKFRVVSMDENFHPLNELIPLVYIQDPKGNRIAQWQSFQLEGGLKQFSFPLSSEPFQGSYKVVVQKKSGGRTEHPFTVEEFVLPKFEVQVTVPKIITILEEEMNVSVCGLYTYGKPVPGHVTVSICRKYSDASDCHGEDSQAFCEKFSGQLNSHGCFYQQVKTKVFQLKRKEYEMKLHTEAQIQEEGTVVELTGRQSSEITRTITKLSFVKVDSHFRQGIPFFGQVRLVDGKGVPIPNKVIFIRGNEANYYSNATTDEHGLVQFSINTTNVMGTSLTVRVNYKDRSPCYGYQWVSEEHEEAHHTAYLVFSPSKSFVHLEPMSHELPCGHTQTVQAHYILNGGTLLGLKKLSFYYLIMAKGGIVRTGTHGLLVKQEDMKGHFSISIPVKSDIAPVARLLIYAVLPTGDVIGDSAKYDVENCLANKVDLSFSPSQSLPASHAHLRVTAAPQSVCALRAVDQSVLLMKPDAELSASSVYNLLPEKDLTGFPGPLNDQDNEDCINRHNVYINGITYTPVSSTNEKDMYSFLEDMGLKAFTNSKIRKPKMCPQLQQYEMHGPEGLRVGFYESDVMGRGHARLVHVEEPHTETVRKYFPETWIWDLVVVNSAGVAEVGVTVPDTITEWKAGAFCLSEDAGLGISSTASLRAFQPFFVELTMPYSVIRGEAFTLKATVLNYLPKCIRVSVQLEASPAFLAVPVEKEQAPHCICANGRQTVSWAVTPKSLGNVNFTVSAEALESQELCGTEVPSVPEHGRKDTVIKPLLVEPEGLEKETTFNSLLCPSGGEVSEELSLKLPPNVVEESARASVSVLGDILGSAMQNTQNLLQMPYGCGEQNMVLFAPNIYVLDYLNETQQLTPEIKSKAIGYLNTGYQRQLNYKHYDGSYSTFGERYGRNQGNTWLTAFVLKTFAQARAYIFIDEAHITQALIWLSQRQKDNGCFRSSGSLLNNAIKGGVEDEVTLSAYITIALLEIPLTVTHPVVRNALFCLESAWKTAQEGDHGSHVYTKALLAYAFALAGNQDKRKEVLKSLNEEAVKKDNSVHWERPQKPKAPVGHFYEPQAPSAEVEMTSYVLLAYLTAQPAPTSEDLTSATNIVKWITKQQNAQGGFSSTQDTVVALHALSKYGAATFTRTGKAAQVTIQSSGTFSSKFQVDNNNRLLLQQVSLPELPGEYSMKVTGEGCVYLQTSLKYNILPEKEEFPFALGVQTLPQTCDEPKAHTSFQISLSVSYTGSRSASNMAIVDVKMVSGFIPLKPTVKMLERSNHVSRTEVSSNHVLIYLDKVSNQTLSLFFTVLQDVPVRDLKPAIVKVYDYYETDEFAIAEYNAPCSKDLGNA

SUDV sGP = molecular target: T2, SUDV sGP (Sudan virus (SUDV), UniProt Q7T9E0 33-324); experiment: filter binding; monomer basis; conditions: protein: commercial; chain copies: 2; label: 32P; hairpin
T2 sequence: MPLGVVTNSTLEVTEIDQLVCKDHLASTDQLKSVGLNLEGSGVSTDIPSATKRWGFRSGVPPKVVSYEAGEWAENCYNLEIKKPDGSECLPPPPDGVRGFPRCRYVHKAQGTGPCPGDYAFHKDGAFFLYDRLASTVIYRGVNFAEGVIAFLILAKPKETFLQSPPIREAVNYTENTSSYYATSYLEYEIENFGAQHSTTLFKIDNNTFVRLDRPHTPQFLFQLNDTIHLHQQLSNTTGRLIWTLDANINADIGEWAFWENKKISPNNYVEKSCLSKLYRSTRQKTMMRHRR

fibrinogen = fibrinogen (UniProt P02671;P02675;P02679 20-866;31-491;27-453); experiment: filter binding; 250 nM to 4 uM fibrinogen; Buffer A: 137 mM NaCl, 2.7 mM KCl, 10 mM Na2HPO4, 2 mM KH2PO4, 5 mM MgCl2, pH 7.4, RT (23-24 C), 30 min; conditions: protein: commercial; chain copies: 2;2;2; label: 32P; hairpin
[1] = molecular target: T3, EBOV sGP (soluble glycoprotein) (Zaire ebolavirus (EBOV), UniProt P60170 33-324); experiment: filter binding; monomer basis; Fig S8 legend uses 50 nM; conditions: protein: recombinant; tags: 6xHis; chain copies: 2; label: 32P; hairpin
Human serum albumin = Human serum albumin (Homo sapiens (Human), UniProt P02768 25-609); experiment: filter; PBS + 5 mM MgCl2 pH 7.4; conditions: label: 32P
[2] = molecular target: T3, EBOV sGP (soluble glycoprotein); experiment: competition; 100-fold excess competes with 39SGP1A; conditions: protein: recombinant; tags: 6xHis; chain copies: 2; label: 32P (direct); hairpins (Mfold)
[3] = molecular target: T3, EBOV sGP (soluble glycoprotein); conditions: protein: recombinant; tags: 6xHis; chain copies: 2
[4] = molecular target: T3, EBOV sGP (soluble glycoprotein); experiment: filter binding; conditions: protein: recombinant, tags: 6xHis, chain copies: 2
[5] = molecular target: T3, EBOV sGP (soluble glycoprotein); experiment: filter binding; 50 and 500 nM sGP; better than 5183; conditions: protein: recombinant; tags: 6xHis; chain copies: 2; label: 32P; central bulge of 5183 removed
[6] = molecular target: T3, EBOV sGP (soluble glycoprotein); experiment: filter binding; 50 and 500 nM sGP; conditions: protein: recombinant; tags: 6xHis; chain copies: 2; label: 32P; 3' stem loop of 5183
[7] = molecular target: T3, EBOV sGP (soluble glycoprotein); experiment: filter binding; monomer basis; conditions: protein: recombinant; tags: 6xHis; chain copies: 2; label: 32P; hairpins (Mfold)
[8] = molecular target: T3, EBOV sGP (soluble glycoprotein); experiment: filter binding; up to 800 nM sGP; conditions: protein: recombinant; tags: 6xHis; chain copies: 2; label: 32P; hairpins (Mfold)

T3 sequence (P60170 33-324): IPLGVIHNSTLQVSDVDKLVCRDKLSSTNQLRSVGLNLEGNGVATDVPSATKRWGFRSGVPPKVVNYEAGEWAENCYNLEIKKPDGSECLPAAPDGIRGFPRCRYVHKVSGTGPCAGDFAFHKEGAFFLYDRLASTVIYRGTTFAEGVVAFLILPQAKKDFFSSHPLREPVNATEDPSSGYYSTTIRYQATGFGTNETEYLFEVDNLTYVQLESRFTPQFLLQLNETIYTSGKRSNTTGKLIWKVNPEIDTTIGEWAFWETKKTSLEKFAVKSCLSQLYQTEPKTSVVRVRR
Sequence of Human serum albumin (P02768 25-609): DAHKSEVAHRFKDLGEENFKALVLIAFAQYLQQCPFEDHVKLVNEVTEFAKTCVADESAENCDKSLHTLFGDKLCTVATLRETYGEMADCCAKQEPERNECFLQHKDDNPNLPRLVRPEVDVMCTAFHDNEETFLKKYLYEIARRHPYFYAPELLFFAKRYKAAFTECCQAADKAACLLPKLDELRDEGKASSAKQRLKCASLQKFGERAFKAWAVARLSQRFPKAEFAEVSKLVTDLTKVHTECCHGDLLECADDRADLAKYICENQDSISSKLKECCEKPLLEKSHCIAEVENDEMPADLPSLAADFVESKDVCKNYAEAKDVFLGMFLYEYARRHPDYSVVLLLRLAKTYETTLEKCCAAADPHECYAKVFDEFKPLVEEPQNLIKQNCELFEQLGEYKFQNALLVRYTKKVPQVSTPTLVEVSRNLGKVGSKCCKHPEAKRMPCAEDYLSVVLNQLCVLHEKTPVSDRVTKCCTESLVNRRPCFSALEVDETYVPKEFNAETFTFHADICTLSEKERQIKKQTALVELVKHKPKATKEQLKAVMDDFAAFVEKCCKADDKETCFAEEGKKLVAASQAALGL
Sequence of fibrinogen (P02671 20-866, chain 1 of 3): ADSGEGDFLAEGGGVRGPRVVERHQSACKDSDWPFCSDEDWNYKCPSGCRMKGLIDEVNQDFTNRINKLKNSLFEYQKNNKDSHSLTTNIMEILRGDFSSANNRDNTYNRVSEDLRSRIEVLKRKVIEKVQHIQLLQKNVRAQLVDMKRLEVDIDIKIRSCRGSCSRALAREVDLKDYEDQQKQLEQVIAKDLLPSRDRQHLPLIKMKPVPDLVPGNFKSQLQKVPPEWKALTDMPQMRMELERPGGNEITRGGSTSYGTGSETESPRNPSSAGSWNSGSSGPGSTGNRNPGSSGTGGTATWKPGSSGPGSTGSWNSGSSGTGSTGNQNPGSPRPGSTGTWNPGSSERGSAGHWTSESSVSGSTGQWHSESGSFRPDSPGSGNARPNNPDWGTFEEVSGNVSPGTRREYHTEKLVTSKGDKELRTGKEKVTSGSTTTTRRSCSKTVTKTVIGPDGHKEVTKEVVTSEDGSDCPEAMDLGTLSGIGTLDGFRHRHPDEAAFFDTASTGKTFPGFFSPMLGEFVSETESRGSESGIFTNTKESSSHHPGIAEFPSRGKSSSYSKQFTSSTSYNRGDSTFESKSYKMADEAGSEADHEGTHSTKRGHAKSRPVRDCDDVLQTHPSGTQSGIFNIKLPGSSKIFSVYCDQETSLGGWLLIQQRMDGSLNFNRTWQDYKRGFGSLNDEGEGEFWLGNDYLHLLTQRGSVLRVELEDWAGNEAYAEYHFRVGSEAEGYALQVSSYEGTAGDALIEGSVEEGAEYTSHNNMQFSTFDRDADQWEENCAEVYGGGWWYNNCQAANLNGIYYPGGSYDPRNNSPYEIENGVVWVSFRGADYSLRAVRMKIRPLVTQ
Sequence of fibrinogen (P02675 31-491, chain 2 of 3): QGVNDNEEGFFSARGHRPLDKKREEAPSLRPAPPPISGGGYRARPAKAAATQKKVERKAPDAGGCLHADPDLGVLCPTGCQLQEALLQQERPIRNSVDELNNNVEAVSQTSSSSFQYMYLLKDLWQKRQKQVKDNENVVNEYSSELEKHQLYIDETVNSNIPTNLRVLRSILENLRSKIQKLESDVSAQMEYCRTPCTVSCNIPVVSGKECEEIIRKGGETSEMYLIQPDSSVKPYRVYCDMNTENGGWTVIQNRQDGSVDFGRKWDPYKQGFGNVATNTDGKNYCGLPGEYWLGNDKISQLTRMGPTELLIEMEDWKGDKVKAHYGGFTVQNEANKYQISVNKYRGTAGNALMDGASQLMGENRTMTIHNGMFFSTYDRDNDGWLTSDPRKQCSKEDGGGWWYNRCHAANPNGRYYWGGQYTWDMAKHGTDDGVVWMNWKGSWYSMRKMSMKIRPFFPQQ
Sequence of fibrinogen (P02679 27-453, chain 3 of 3): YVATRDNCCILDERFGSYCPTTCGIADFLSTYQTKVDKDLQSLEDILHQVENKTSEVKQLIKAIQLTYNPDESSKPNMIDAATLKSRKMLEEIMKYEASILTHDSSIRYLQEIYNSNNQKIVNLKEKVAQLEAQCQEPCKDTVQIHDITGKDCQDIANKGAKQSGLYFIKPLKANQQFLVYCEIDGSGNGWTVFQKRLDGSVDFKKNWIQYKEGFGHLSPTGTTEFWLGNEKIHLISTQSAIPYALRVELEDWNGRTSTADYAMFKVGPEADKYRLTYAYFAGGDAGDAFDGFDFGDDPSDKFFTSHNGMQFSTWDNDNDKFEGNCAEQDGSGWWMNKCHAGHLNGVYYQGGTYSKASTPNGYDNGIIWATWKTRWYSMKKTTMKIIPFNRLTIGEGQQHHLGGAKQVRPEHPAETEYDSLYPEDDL

GGGCGCUCAAUUUUUUAUUGCAUUUUUCUUUGAGCGCCC (XNA, 2'-F on all C and U) [39SGP1A (5199) 2'FY-RNA]
binding result (alpha2-macroglobulin): no binding
Kd (SUDV sGP): 240 nM
binding result (fibrinogen): no binding
Kd [1]: 27 nM

GGGCGCUCAAUUUUUUAUUGCAUUUUUCUUUGAGCGCCC (ssRNA, 2'-F pyrimidines) [39SGP1A (5199)]
Kd (Human serum albumin): > 68000 nM

B1: 4789 2'FY-RNA (XNA)
RNA: GGGAGACAAGAAUAAACGCUCAAACGUAAUGCAGUCUGUGAGCUUCAGCAAGUAAAAUUAGCGCUGACCGACCCUGUUCGACAGGAGGCUCACAACAGGC
modifications: 2'-F on all C and U
binding result [2]: binds

B2: 4797 2'FY-RNA (XNA)
RNA: GGGAGACAAGAAUAAACGCUCAAAGCAACACAACGAGAUUAAACAAUCUAUUGUUAACAUUAAACAACUAGGCCGAUUCGACAGGAGGCUCACAACAGGC
modifications: 2'-F on all C and U
Kd [3]: ~500 nM

B3: 5189 2'FY-RNA (XNA)
RNA: GGGAGACAAGAAUAAACGCUCAAUUUUUUAUUGCAUUUUUCUUUGAGCGUCAUUGAUACCCUGUUUCCU
modifications: 2'-F on all C and U
binding result ([4]; label: 32P): binds

B4: 5192 2'FY-RNA (XNA)
RNA: GGGAGACAUAAACGCUCAAUUUUUUAUUGCAUUUUUCUUUGAGCGUCAUUGUGUUUCCUUGAGCACUUCGACAGGAGGCUCACAACAGGC
modifications: 2'-F on all C and U
binding result [5]: binds

B5: 5193 2'FY-RNA (XNA)
RNA: GGGAGACAAGAAUGAUACCCUGUUUCCUUGAGCUAUUCGACAGGAGGCUCACAACAGGC
modifications: 2'-F on all C and U
binding result [6]: no binding

B6: 5183 2'FY-RNA (XNA)
RNA: GGGAGACAAGAAUAAACGCUCAAUUUUUUAUUGCAUUUUUCUUUGAGCGUCAUUGAUACCCUGUUUCCUUGAGCACUUCGACAGGAGGCUCACAACAGGC
modifications: 2'-F on all C and U; 2'-OH A and G
Kd [7]: 54 nM

B7: 2'FC-5183 (XNA)
RNA: GGGAGACAAGAAUAAACGCUCAAUUUUUUAUUGCAUUUUUCUUUGAGCGUCAUUGAUACCCUGUUUCCUUGAGCACUUCGACAGGAGGCUCACAACAGGC
modifications: 2'-F on C only; U is 2'-OH
binding result [8]: no binding

B8: 5183 2'OH RNA (structured_RNA)
RNA: GGGAGACAAGAAUAAACGCUCAAUUUUUUAUUGCAUUUUUCUUUGAGCGUCAUUGAUACCCUGUUUCCUUGAGCACUUCGACAGGAGGCUCACAACAGGC
modifications: none (2'-OH)
binding result ([4]; label: 32P, hairpins (Mfold)): no binding

B9: 5183 (ssRNA)
RNA: GGGAGACAAGAAUAAACGCUCAAUUUUUUAUUGCAUUUUUCUUUGAGCGUCAUUGAUACCCUGUUUCCUUGAGCACUUCGACAGGAGGCUCACAACAGGC
modifications: 2'-F pyrimidines
Kd (Human serum albumin): 400 nM

B10: 5179 2'FY-RNA (XNA)
RNA: GGGAGACAAGAAUAAACGCUCAAUCUUUUUAUUUUACUUUUUGUUGUAGAGCGCUUGUUUCUCUGAGUUGUAGCCAUUCGACAGGAGGCUCACAACAGGC
modifications: 2'-F on all C and U
Kd ([4]; label: 32P (direct)): < 100 nM

B11: 5182 2'FY-RNA (XNA)
RNA: GGGAGACAAGAAUAAACGCUCAAGUCUUUAUUUUUACACUUUUAUUUUACCUUGAGCUUCUUGACCAACAGUGCGCUUCGACAGGAGGCUCACAACAGGC
modifications: 2'-F on all C and U
Kd ([4]; label: 32P): < 100 nM
